How the values were obtained:
[1] = target: T1, MDA-modified LDL particles; assay: plate-based binding assay, His-tagged recombinant protein from HEK293 cells
T1 construct: Not a plain protein; also called MDA-LDL; MDA adducts

[2] = target: T1, MDA-modified LDL particles; assay: rank of binding affinity among six proteins, plate-based binding assays
[3] = target: T2, monomeric C-reactive protein (CRP) (UniProt P02741 19-224); assay: as above
T2 sequence (looked up): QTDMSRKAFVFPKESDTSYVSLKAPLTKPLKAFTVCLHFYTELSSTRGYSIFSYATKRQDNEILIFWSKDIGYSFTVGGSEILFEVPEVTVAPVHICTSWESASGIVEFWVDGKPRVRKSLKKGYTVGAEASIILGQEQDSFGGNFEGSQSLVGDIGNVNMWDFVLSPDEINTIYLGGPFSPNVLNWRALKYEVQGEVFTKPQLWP

[4] = target: T1, MDA-modified LDL particles; assay: relative MDA-binding assay, detection antibody AbCam OX-24 (#Ab112197)
[5] = target: T2, monomeric C-reactive protein (CRP); assay: relative CRP-binding assay, percent of CFH-Risk, detection antibody AbCam OX-24 (#Ab112197)
[6] = target: T2, monomeric C-reactive protein (CRP); assay: relative CRP-binding assay, detection antibody AbCam OX-24 (#Ab112197)
[7] = target: T1, MDA-modified LDL particles; assay: relative MDA-binding assay, percent of CFH-Risk, detection antibody AbCam OX-24 (#Ab112197)

Row | Binder | Kd [1] | Binding Affinity Rank (1 best to 6 worst) [2] | Binding Affinity Rank (1 best to 6 worst) [3] | Binding Potential [4] | % FH-Risk [5] | Binding Potential [6] | % FH-Risk [7]
1 | CFH-Del (CFH of the CFHR3/1 deletion haplotype, V62-Y402-E936) (other, also called 3,1 Deletion (Del)) EDCNELPPRRNTEILTGSWSDQTYPEGTQAIYKCRPGYRSLGNVIMVCRKGEWVALNPLRKCQKRPCGHPGDTPFGTFTLTGGNVFEYGVKAVYTCNEGYQLLGEINYRECDTDGWTNDIPICEVVKCLPVTAPENGKIVSSAMEPDREYHFGQAVRFVCNSGYKIEGDEEMHCSDDGFWSKEKPKCVEISCKSPDVINGSPISQKIIYKENERFQYKCNMGYEYSERGDAVCTESGWRPLPSCEEKSCDNPYIPNGDYSPLRIKHRTGDEITYQCRNGFYPATRGNTAKCTSTGWIPAPRCTLKPCDYPDIKHGGLYHENMRRPYFPVAVGKYYSYYCDEHFETPSGSYWDHIHCTQDGWSPAVPCLRKCYFPYLENGYNQNYGRKFVQGKSIDVACHPGYALPKAQTTVTCMENGWSPTPRCIRVKTCSKSSIDIENGFISESQYTYALKEKAKYQCKLGYVTADGETSGSITCGKDGWSAQPTCIKSCDIPVFMNARTKNDFTWFKLNDTLDYECHDGYESNTGSTTGSIVCGYNGWSDLPICYERECELPKIDVHLVPDRKKDQYKVGEVLKFSCKPGFTIVGPNSVQCYHFGLSPDLPICKEQVQSCGPPPELLNGNVKEKTKEEYGHSEVVEYYCNPRFLMKGPNKIQCVDGEWTTLPVCIVEESTCGDIPELEHGWAQLSSPPYYYGDSVEFNCSESFTMIGHRSITCIHGVWTQLPQCVAIDKLKKCKSSNLIILEEHLKNKKEFDHNSNIRYRCRGKEGWIHTVCINGRWDPEVNCSMAQIQLCPPPPQIPNSHNMTTTLNYRDGEKVSVLCQENYLIQEGEEITCKDGRWQSIPLCVEKIPCSQPPQIEHGTINSSRSSQESYAHGTKLSYTCEGGFRISEENETTCYMGKWSSPPQCEGLPCKSPPEISHGVVAHMSDSYQYGEEVTYKCFEGFGIDGPAIAKCLGEKWSHPPSCIKTDCLSLPSFENAIPMGEKKDVYKAGEQVTYTCATYYKMDGASNVTCINSRWTGRPTCRDTSCVNPPTVQNAYIVSRQMSKYPSGERVRYQCRSPYEMFGDEEVMCLNGNWTEPPQCKDSTGKCGPPPPIDNGDITSFPLSVYAPASSVEYQCQNLYQLEGNKRITCRNGQWSEPPKCLHPCVISREIMENYNIALRWTAKQKLYSRTGESVEFVCKRGYRLSSRSHTLRTTCWDGKLEYPTCAKR |  |  |  | 43 | 972% | 14 | 145%
2 | CFHT-Neu/Del (truncated CFH of the neutral and deletion haplotypes, V62-Y402) (other) EDCNELPPRRNTEILTGSWSDQTYPEGTQAIYKCRPGYRSLGNVIMVCRKGEWVALNPLRKCQKRPCGHPGDTPFGTFTLTGGNVFEYGVKAVYTCNEGYQLLGEINYRECDTDGWTNDIPICEVVKCLPVTAPENGKIVSSAMEPDREYHFGQAVRFVCNSGYKIEGDEEMHCSDDGFWSKEKPKCVEISCKSPDVINGSPISQKIIYKENERFQYKCNMGYEYSERGDAVCTESGWRPLPSCEEKSCDNPYIPNGDYSPLRIKHRTGDEITYQCRNGFYPATRGNTAKCTSTGWIPAPRCTLKPCDYPDIKHGGLYHENMRRPYFPVAVGKYYSYYCDEHFETPSGSYWDHIHCTQDGWSPAVPCLRKCYFPYLENGYNQNYGRKFVQGKSIDVACHPGYALPKAQTTVTCMENGWSPTPRCIRVSFTL |  |  |  | 28 | 6870% | 101 | 94%
3 | CFHT-V62-H402 (risk variant of truncated CFH) (other, also called CFHT-Risk) EDCNELPPRRNTEILTGSWSDQTYPEGTQAIYKCRPGYRSLGNVIMVCRKGEWVALNPLRKCQKRPCGHPGDTPFGTFTLTGGNVFEYGVKAVYTCNEGYQLLGEINYRECDTDGWTNDIPICEVVKCLPVTAPENGKIVSSAMEPDREYHFGQAVRFVCNSGYKIEGDEEMHCSDDGFWSKEKPKCVEISCKSPDVINGSPISQKIIYKENERFQYKCNMGYEYSERGDAVCTESGWRPLPSCEEKSCDNPYIPNGDYSPLRIKHRTGDEITYQCRNGFYPATRGNTAKCTSTGWIPAPRCTLKPCDYPDIKHGGLYHENMRRPYFPVAVGKYYSYYCDEHFETPSGSYWDHIHCTQDGWSPAVPCLRKCYFPYLENGYNQNHGRKFVQGKSIDVACHPGYALPKAQTTVTCMENGWSPTPRCIRVSFTL |  | 5 rank | 5 rank | 10 | 131% | 2 | 35%

Further lines, results first:

Row | Kd [1] | Binding Affinity Rank (1 best to 6 worst) [2] | Binding Affinity Rank (1 best to 6 worst) [3] | Binding Potential [4] | % FH-Risk [5] | Binding Potential [6] | % FH-Risk [7] | Binder
4 | 290 nM | 3 rank | 1 rank |  |  |  |  | eCFHT-SK (engineered truncated CFH, I62-Y402, ending in SKSFTL) (other, Non-natural variant of human CFHT with SK inserted before the C-terminal SFTL; In the Western blot it was expressed from eCFH/T v4.2 in RPE1 cells; also called protective eCFHT-SK; truncated product of eCFH/T v4.2) EDCNELPPRRNTEILTGSWSDQTYPEGTQAIYKCRPGYRSLGNIIMVCRKGEWVALNPLRKCQKRPCGHPGDTPFGTFTLTGGNVFEYGVKAVYTCNEGYQLLGEINYRECDTDGWTNDIPICEVVKCLPVTAPENGKIVSSAMEPDREYHFGQAVRFVCNSGYKIEGDEEMHCSDDGFWSKEKPKCVEISCKSPDVINGSPISQKIIYKENERFQYKCNMGYEYSERGDAVCTESGWRPLPSCEEKSCDNPYIPNGDYSPLRIKHRTGDEITYQCRNGFYPATRGNTAKCTSTGWIPAPRCTLKPCDYPDIKHGGLYHENMRRPYFPVAVGKYYSYYCDEHFETPSGSYWDHIHCTQDGWSPAVPCLRKCYFPYLENGYNQNYGRKFVQGKSIDVACHPGYALPKAQTTVTCMENGWSPTPRCIRVSKSFTL
5 |  |  |  | 39 | 956% | 14 | 130% | CFH-Neu (neutral variant of full-length CFH, V62-Y402-D936) (other, also called Neutral (Neu)) EDCNELPPRRNTEILTGSWSDQTYPEGTQAIYKCRPGYRSLGNVIMVCRKGEWVALNPLRKCQKRPCGHPGDTPFGTFTLTGGNVFEYGVKAVYTCNEGYQLLGEINYRECDTDGWTNDIPICEVVKCLPVTAPENGKIVSSAMEPDREYHFGQAVRFVCNSGYKIEGDEEMHCSDDGFWSKEKPKCVEISCKSPDVINGSPISQKIIYKENERFQYKCNMGYEYSERGDAVCTESGWRPLPSCEEKSCDNPYIPNGDYSPLRIKHRTGDEITYQCRNGFYPATRGNTAKCTSTGWIPAPRCTLKPCDYPDIKHGGLYHENMRRPYFPVAVGKYYSYYCDEHFETPSGSYWDHIHCTQDGWSPAVPCLRKCYFPYLENGYNQNYGRKFVQGKSIDVACHPGYALPKAQTTVTCMENGWSPTPRCIRVKTCSKSSIDIENGFISESQYTYALKEKAKYQCKLGYVTADGETSGSITCGKDGWSAQPTCIKSCDIPVFMNARTKNDFTWFKLNDTLDYECHDGYESNTGSTTGSIVCGYNGWSDLPICYERECELPKIDVHLVPDRKKDQYKVGEVLKFSCKPGFTIVGPNSVQCYHFGLSPDLPICKEQVQSCGPPPELLNGNVKEKTKEEYGHSEVVEYYCNPRFLMKGPNKIQCVDGEWTTLPVCIVEESTCGDIPELEHGWAQLSSPPYYYGDSVEFNCSESFTMIGHRSITCIHGVWTQLPQCVAIDKLKKCKSSNLIILEEHLKNKKEFDHNSNIRYRCRGKEGWIHTVCINGRWDPEVNCSMAQIQLCPPPPQIPNSHNMTTTLNYRDGEKVSVLCQENYLIQEGEEITCKDGRWQSIPLCVEKIPCSQPPQIEHGTINSSRSSQESYAHGTKLSYTCEGGFRISEENETTCYMGKWSSPPQCEGLPCKSPPDISHGVVAHMSDSYQYGEEVTYKCFEGFGIDGPAIAKCLGEKWSHPPSCIKTDCLSLPSFENAIPMGEKKDVYKAGEQVTYTCATYYKMDGASNVTCINSRWTGRPTCRDTSCVNPPTVQNAYIVSRQMSKYPSGERVRYQCRSPYEMFGDEEVMCLNGNWTEPPQCKDSTGKCGPPPPIDNGDITSFPLSVYAPASSVEYQCQNLYQLEGNKRITCRNGQWSEPPKCLHPCVISREIMENYNIALRWTAKQKLYSRTGESVEFVCKRGYRLSSRSHTLRTTCWDGKLEYPTCAKR
6 |  | 6 rank | 6 rank | 30 | 100% | 1 | 100% | CFH-V62-H402-E936 (risk variant of full-length CFH) (other, also called CFH-Risk; CFH-risk protein) EDCNELPPRRNTEILTGSWSDQTYPEGTQAIYKCRPGYRSLGNVIMVCRKGEWVALNPLRKCQKRPCGHPGDTPFGTFTLTGGNVFEYGVKAVYTCNEGYQLLGEINYRECDTDGWTNDIPICEVVKCLPVTAPENGKIVSSAMEPDREYHFGQAVRFVCNSGYKIEGDEEMHCSDDGFWSKEKPKCVEISCKSPDVINGSPISQKIIYKENERFQYKCNMGYEYSERGDAVCTESGWRPLPSCEEKSCDNPYIPNGDYSPLRIKHRTGDEITYQCRNGFYPATRGNTAKCTSTGWIPAPRCTLKPCDYPDIKHGGLYHENMRRPYFPVAVGKYYSYYCDEHFETPSGSYWDHIHCTQDGWSPAVPCLRKCYFPYLENGYNQNHGRKFVQGKSIDVACHPGYALPKAQTTVTCMENGWSPTPRCIRVKTCSKSSIDIENGFISESQYTYALKEKAKYQCKLGYVTADGETSGSITCGKDGWSAQPTCIKSCDIPVFMNARTKNDFTWFKLNDTLDYECHDGYESNTGSTTGSIVCGYNGWSDLPICYERECELPKIDVHLVPDRKKDQYKVGEVLKFSCKPGFTIVGPNSVQCYHFGLSPDLPICKEQVQSCGPPPELLNGNVKEKTKEEYGHSEVVEYYCNPRFLMKGPNKIQCVDGEWTTLPVCIVEESTCGDIPELEHGWAQLSSPPYYYGDSVEFNCSESFTMIGHRSITCIHGVWTQLPQCVAIDKLKKCKSSNLIILEEHLKNKKEFDHNSNIRYRCRGKEGWIHTVCINGRWDPEVNCSMAQIQLCPPPPQIPNSHNMTTTLNYRDGEKVSVLCQENYLIQEGEEITCKDGRWQSIPLCVEKIPCSQPPQIEHGTINSSRSSQESYAHGTKLSYTCEGGFRISEENETTCYMGKWSSPPQCEGLPCKSPPEISHGVVAHMSDSYQYGEEVTYKCFEGFGIDGPAIAKCLGEKWSHPPSCIKTDCLSLPSFENAIPMGEKKDVYKAGEQVTYTCATYYKMDGASNVTCINSRWTGRPTCRDTSCVNPPTVQNAYIVSRQMSKYPSGERVRYQCRSPYEMFGDEEVMCLNGNWTEPPQCKDSTGKCGPPPPIDNGDITSFPLSVYAPASSVEYQCQNLYQLEGNKRITCRNGQWSEPPKCLHPCVISREIMENYNIALRWTAKQKLYSRTGESVEFVCKRGYRLSSRSHTLRTTCWDGKLEYPTCAKR
